Laboratory results from publication PMC9789309.
pKd: −log10 of the molar value.

Biological target: ACE2, membrane-anchored, endogenously expressed on VeroE6 cells (African green monkey (endogenous in VeroE6))
Experiment: single-molecule force spectroscopy (AFM)

For “SARS-CoV-2 Spike receptor binding domain, Wuhan reference strain, monomer (from UniProt P0DTC2 319-541) (domain or fragment)”, the pKd was 8.49, the koff was 0.00032 s⁻¹ and the kon was 100000 M⁻¹ s⁻¹.
